Reference: publication PMC9714796

Target: TGF-βRII-Fc (muTGFbRII-mFc) (mouse (from the printed name muTGFbRII-mFc)) (UniProt Q62312)
Assay: SPR; Biacore T100; TGF-βRII-Fc captured (~50 RU) by an anti-mouse Fc antibody amine-coupled to a CM5 chip; TGF-β2 injected at 0.04-90 nM (0.12-90 nM used for the fit); HBS-EP with 350 mM NaCl and 0.5 mg/mL BSA; steady-state affinity model

Sequence of TGF-βRII-Fc (muTGFbRII-mFc) (mouse (from the printed name muTGFbRII-mFc)) (Q62312 24-166): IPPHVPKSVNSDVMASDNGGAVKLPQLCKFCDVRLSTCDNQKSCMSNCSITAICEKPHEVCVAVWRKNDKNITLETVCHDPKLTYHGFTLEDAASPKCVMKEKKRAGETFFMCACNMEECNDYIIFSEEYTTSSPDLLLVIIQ

- Kd: 11.6 nM
Substance: Transforming growth factor-β2 (TGF-β2) (ligand)
